Results from patent publication US20100254995A1.

What was measured:
[1] = molecular target: human TNFR1 (soluble recombinant protein) (human) (UniProt P19438); test: phage ELISA, plate coated with 1 nM TNFRI, anti-M13-HRP; phage pre-treated 1 h room temp with 100 ug/ml trypsin; phage input 1.13E+10
[2] = molecular target: human TNFR1 (soluble recombinant protein) (human) (UniProt P19438); test: phage ELISA, plate coated with 1 nM TNFRI, anti-M13-HRP; phage pre-treated 1 h room temp with 10 ug/ml trypsin; phage input 1.13E+10
[3] = molecular target: human TNFR1 (soluble recombinant protein) (human) (UniProt P19438); test: phage ELISA, plate coated with 1 nM TNFRI, anti-M13-HRP; phage pre-treated 1 h room temp with 1 mg/ml trypsin; phage input 1.13E+10

Sequence of human TNFR1 (soluble recombinant protein) (human) (P19438 41-201 limits assumed): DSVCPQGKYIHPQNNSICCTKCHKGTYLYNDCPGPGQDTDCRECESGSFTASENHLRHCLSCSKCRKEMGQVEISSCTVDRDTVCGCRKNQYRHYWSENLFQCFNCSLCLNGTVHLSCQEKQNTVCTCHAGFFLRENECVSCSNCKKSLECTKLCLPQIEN

DOM1h-131 was tested, and the phage ELISA signal (read-out not named) [1] was 0.284, the phage ELISA signal (read-out not named) [2] was 0.86 and the phage ELISA signal (read-out not named) [3] was 0.183.
